Results taken from the nanobody polyreactivity screen of Harvey et al. (2022).

Assay: yeast display, Sf9 membrane polyspecificity reagent, FACS + sequencing; frameworks hold sequencing errors
Outline: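 Galactose induction of a Saccharomyces cerevisiae BJ5465 synthetic nanobody display library ran 36–48 hours. The cells were then stained for 1 hour at 4 °C with 10% biotinylated, detergent-solubilized Sf9 membrane reagent, pulled down on streptavidin microbeads and FACS-sorted into low and high (top ~1%) gates on expression and reagent-binding fluorescence. Labels for polyreactivity follow the gate of origin.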

QVQLVESGGGLVQAGGSLRLSCAASGRTFYVYAMGWYRQAPGKVSELVAAISASGGRTYYADSVKGGFTISRDNAKNTVYLQMNSLKPEDTAVYYCAAEGRRGGKDYDYWGQGTQVTVSS
polyreactivity (PSR sort gate): high polyreactivity

QVQLVESGGGLVQAGGSLRLSCAASRRTFSQYAMGWYRQAHGKERELVAAITSARSTYYADSVKGRFTISRDNAKNTVYLQMNSLKPEDTAVYYCAAYIRFRSNWGQGTQVTVSS
polyreactivity (PSR sort gate): high polyreactivity

QVQLVESGGGLVQAGGSLRLSCAASGRTFERYAMGWYRQAPGKERELVAAISWSGSSTYYADSVKARFTISRDISKNTVYLHMNSLKPEDTAVYYCNALFQQRYGYWGQGTQVTVSS
polyreactivity (PSR sort gate): low polyreactivity

QVQLVESGGGLVQAGGSLRLSCAASGRTFRPYAMGWYRQAPGKERELVAVISYRGGSTYYADSVKGRFTISRDNAKNTVYLQMNSLKPEDTAVYYCNAQAGWFSRLYYWGQGTQVTVSS
polyreactivity (PSR sort gate): high polyreactivity

QVQLVESGGGLVQAGGSLRLSCAASGSTFVGNAMGWYRQAPGKERELVAAITGGGGSTNYADSVKGRFTISRDNAKNTVYLQMNSLKPEDTAVYYCAVEVYYTGFYYSPYAYDYWGQGTQVTVSS
polyreactivity (PSR sort gate): low polyreactivity

QVQLVESGGGLVQAGGSLRLTCAASGFIFNYNTMGWYRQAPGKERELVAGINWSGTRTYYADSVKGRFTISRDNAKNTDYLQMNSLKPEDTAVYYCNAYTQQYRSYGYWGQGTQVTVSS
polyreactivity (PSR sort gate): high polyreactivity

QVQLVESGGGLVQAGGSLRLICAASGFTLDQYAMGWYRPAPGKERELVAVITSGGNTYYADSVKGRFTISRDNAKNTVYLQMNSLKPEDTAVYYCAKDVSDPFYDPFEYWGQGTQVTVSS
polyreactivity (PSR sort gate): low polyreactivity

QVQLVESGGGLVQAGGSLRLSCAASGFTFAYYAMGWDRQSPGNEREFVAAISSRGGSTYADSVKGRFTISRDNAKNTVYLQMNSLKPEDTAVYYCNAVVPRSRYFSWTYDYWGQGTQVTVSS
polyreactivity (PSR sort gate): high polyreactivity

QVQLVESGGGLVQAGGSLRLSCAASGNIFYNVMGWYRQAPGKVRELVAVISSGDSTYYADSVKGRFTISRDNAKNTVYLQMNSLIPEDTAVYYCNAQWITSAYLLYSYDYWWGYDYWGQGTQVTVSS
polyreactivity (PSR sort gate): high polyreactivity

QVQLVESGGGLVQAGGSLRLSCAASGFIIYSYAMGWYRQAPGKERELVAGITSDGRTYYADSVKGRFTISRDNAKNTVYLQMNSLKPEDTAVYYCAARYYLFYRVSPYYYWGQGTQVTVSS
polyreactivity (PSR sort gate): low polyreactivity

QVQLVESGGGLVQAGGSLRLSCAASGSTFILYAMGWYRQAPGKERELVAAITSRGGSTYYADSVKGRFTISRDNAKNTVYLQMNSLKPEDTAVYYCAADNGYIGPKPYFLAYPVGYDSWGQGTQVTVSS
polyreactivity (PSR sort gate): low polyreactivity

QVQLVESGGGLVQAGGSLRLSCAASGRIFYSYAMGWYRQAPGKERELVATISSAGSTYYADAVKGRFTISRDNAKNTVYLQMNSLKPEDTAVYYCAARRPRRYGYWGQGTQVTVSS
polyreactivity (PSR sort gate): high polyreactivity

QVQLVESGGGLVQAGGSLRVSCAASGSNFPRYAMGWYRQAPGKERELVAAISGRGGSTYYADSVKGRFTISRDNAKNTVYLQMNSLKPEDTAVYYCNAVGHTSIRRALDILDYWGQGTQVTVSS
polyreactivity (PSR sort gate): high polyreactivity

QVQLVESGGGLVQAGGSLRLSCAPSGFIFWRNAMGWYRQAPGKEREFVAAITSSGGRTYYADSVKGRFTISRDNAKNTVYLQMNSLKPEDTAVYYCAAEIRDYAKSYSFYWGQGTQVTVSS
polyreactivity (PSR sort gate): high polyreactivity

QVQLVESGGGLVQAGGSLRLSCAASGSIFKIYAMGWSRQAPGKERELVAAISRSVGSTYADSVKGRFTISRDNAKNTVYLQMNSLKPEDTAVYYCNARYKSRLYPRYDYWGQGTQVTVSS
polyreactivity (PSR sort gate): high polyreactivity

QVQLVESGGGLVQAGGSLRLSCAASGRTFGTYAMGWSRQAPGKERELVASITWSGTSTYYADSVKGRFTISRDNAKNTVYLQMNSLKPEDTAVYYCAAGWGYYRYYYWGQGTQVTVSS
polyreactivity (PSR sort gate): high polyreactivity

QVQLEESGGGLVQAGGSLRLSCAASGRTFVYNTKGWYRQAPGKERELVAAITSSGGRTSYADSVKGRFTISRDNAKNTVYLQMNSLKPEDTAVYYCAKDRYTSSTQYRRYDYWGQGTQVTVSS
polyreactivity (PSR sort gate): high polyreactivity

QVQLVESGGGLVQAGGSLRLSCAASGLTFYYYAKGWYRQAPGKERDFVAAISRSGGTTYYADSVKGRYTISRDNAKNTVYLQMNSLKPEDTAVYYCNAQWCRYWPSQVIFDYWGQGTQVTVSS
polyreactivity (PSR sort gate): high polyreactivity

QVQHVESGRCLFQAGGSLRLSCAASGSTFYNNALGWYRQAPGKERELVAVITDSGGRTYYADSVKGRFTISRDNAKNSVKLQMNSLKPEDCAVYYCAADIGYDVYNDYDYWGQGTQVTVSS
polyreactivity (PSR sort gate): low polyreactivity

QVQLVESGGGLVQAGGSLRLSCAASGNTFYNVYAMGWYRQATGKERELVAAITARGSTYADSVKGRFTISRDNAKNTVYLQMNSLKPEDNAVYYGATRSSWLYRGLYYNGFNYWGQGTQVTVSS
polyreactivity (PSR sort gate): high polyreactivity

QVQLVESGGGLVQAGGSLRLSCAASGSIILHYAMGRYRHAPRKERELVAVIRGGGSTNYADSVKGRFTISRDNAKNSVYLQMNSLKPEDSAVYYCAADYEAYRYDFWGQGTQVTVSS
polyreactivity (PSR sort gate): high polyreactivity

QVQIVESGGGLVQAGGSLRLSCAASGYIFPYYAMGWYRQAPGKERELVAGITTDGSSTYYADSVKGRFTISRDNAKNTVYLQMNSLNPEDTAVYYFYVYPGYTWGWYDYWGQGTQVTVSS
polyreactivity (PSR sort gate): low polyreactivity

QVQLVESVGCLVQAGGSLRLICAASGSIFVDYAMGWYRQAPGKERELVAAISSGGGSTYYADSVKGRFTISRDNSKYTVYLQMNSLKPEDTAVYYCATDLQPRSFLYWYNYWGQGTQVTVSS
polyreactivity (PSR sort gate): low polyreactivity

QVQLVESGGGLVQAGGSLRLSCAASGRTFGYYAMGWYRQAPGKERELVATITFGGGSTYYADSVKGRFTISRDNAKNTVYLQMNSLKPEDTAVYYCAADTSVHSEVDYWGQGTQVTVSS
polyreactivity (PSR sort gate): low polyreactivity

QVQLVESGGGLVQAGGSLRLSCAASGSTFGINAMGWSRQAPGKERELVAAISWRGGSTYYADSVKGRFTISRDNSKNTVYLQMNSLKPEDTAVYYCAADTFYWVGHYYVETYDYWGQGTQVTVSS
polyreactivity (PSR sort gate): high polyreactivity

QVLLVESGGGLVQAGGSLRLSCAASGSIFWGYDMGWYRQAPGKDSELVAVISWSTTSTYFADSVKGRFTISRDNANNTVYLLMNSLKAEDTAVYYCNSEAYQYWEFDYWGQGTQVTVSS
polyreactivity (PSR sort gate): low polyreactivity

QVQLEESGGGLVQAGGSLRLSCAASGFTFVPYAMGWYRQAPGKERELVARITWSGGSTYYADSVKGRFTISRDNAKNTVYLQMNSLKPEDTAVYYCNLDTRYPGYWRVFAKNNYWGQGTQVTVSS
polyreactivity (PSR sort gate): high polyreactivity

QVQLVESGGGLVQAGGSLRLSCAASGFTFHKNAMGWYRQAPGKERELVAGISRRAGSTYYADSVKGRFTISRDNAKNTVYLQMNSLKPEDTAVYYCATDRARTGALYYWGQGTQVTVSS
polyreactivity (PSR sort gate): high polyreactivity

HVQLVESAGGLVQAGGSLRLSCAASGRIFAVYAMGWYRQAPGKERELVAAISYIGGSTYYADSVKGRFTISRDNAKNTVYLQMNSLKPEDTAVYYCNKDIPKRQYVVYRTAYEYDYWGQGTQVSVSS
polyreactivity (PSR sort gate): low polyreactivity

QVQLVESGGGLVQAGGSLRLSCAASGSIERNAMGWYRQAPGKERELVAAISRSGTRTYYADSVKGRFTISRDNAKNTVYLQMNSLKPEDTAVYYCAKASAQWVQFDYWGQGTQVTVSS
polyreactivity (PSR sort gate): high polyreactivity

QVQLVESGGGLVQAGGSLRLSCAASGRIFVGYAMGRNIQAPGKERELVAAISRDGDNTFYADSVKGRFTISRDNAKNTVYLQMNSLKPEDTAVYYCAVDYWVWSCSAYAYDYYWGQVTQVTVSS
polyreactivity (PSR sort gate): low polyreactivity
